Key:
proMMP-2 = biological target: T1, proMMP-2 (Homo sapiens, UniProt P08253); assay: ProMMP-2 binding assay on transfected COS1 cells; format: cell-based; conditions: COS1 cells co-transfected with MT1-MMP (FIG. 29)
T1 construct: made in house; host or cells: HighFive insect cells infected with recombinant baculovirus; purified from culture supernatant
T1 sequence (P08253 30-660 limits assumed): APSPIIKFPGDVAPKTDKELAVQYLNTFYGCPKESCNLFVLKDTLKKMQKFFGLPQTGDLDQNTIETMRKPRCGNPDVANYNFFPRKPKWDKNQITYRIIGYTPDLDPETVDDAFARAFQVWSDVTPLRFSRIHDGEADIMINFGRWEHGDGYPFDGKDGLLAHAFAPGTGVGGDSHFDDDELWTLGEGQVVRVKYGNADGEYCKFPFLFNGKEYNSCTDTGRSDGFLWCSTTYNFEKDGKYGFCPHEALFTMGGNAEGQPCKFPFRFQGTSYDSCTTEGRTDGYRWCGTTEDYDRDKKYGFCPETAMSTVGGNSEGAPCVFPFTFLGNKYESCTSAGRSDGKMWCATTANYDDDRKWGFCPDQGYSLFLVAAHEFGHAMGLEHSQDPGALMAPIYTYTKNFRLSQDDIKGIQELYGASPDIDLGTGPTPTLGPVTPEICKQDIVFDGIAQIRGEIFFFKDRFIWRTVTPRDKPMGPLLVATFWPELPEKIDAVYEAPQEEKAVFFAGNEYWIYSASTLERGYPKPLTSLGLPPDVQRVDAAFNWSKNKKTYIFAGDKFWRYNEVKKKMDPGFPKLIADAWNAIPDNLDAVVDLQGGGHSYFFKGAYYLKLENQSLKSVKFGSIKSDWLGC
Description: Transfected COS1 cells were cultured in a 24-well plate (0.2×10^4/well). Forty-eight hours after transfection, the cells were washed three times with serum-free DMEM, and incubated with purified proMMP-2 (2 μg/ml) in the serum-free DMEM at 25° C. for 1 hr. The cells were then washed three times with serum-free DMEM containing 5% dimethyl sulfoxide (DMSO) to remove free proMMP-2, and lysed in 50 μl of a non-reducing SDS-loading buffer. MMP-2 bound to the cells was analyzed by gelatin zymography.

MT1-MMP [1] = biological target: T2, MT1-MMP (Homo sapiens, UniProt P50281); assay: Activation of proMMP-2 by MT1-MMP on the cell surface of transfected cells (gelatin zymography); format: cell-based
T2 construct: expressed in transfected cells
Description: (§1) Gelatin zymography was conducted using an SDS-polyacrylamide gel (PAGE) containing gelatin (0.8 mg/ml) (Itoh, Y. et al., J. Biol. Chem., 273: 24360-24367, 1998). The samples were mixed with a SDS-PAGE loading buffer without a reducing agent and subjected to electrophoretic analysis at room temperature. Enzyme activity was visualized as a negative staining area with Coomassie Brilliant Blue R-250.
(§2) The expression construct for FLAG epitope ([…]-tagged MT1-MMP (MT1-F) described in Itoh, Y. et al., J. Biol. Chem., 274: 34260-34266, 1999 was used as a template to generate cDNA for MT1Cat-F (A Ile^318-Gly^535) by the PCR extension method of Ho et al., (Ho, S. N. et al., Gene, 77: 51-59, 1989). The cDNA was subcloned into pSG5 (Stratagene, CA, USA). The PCR-generated fragments were confirmed by DNA sequencing. COS1 cells were transfected with the expression vector for MT1-MMP mutant; MT1-F or MT1Cat-F, or a vector alone (Mock). Expression vectors for each protein were transfected using FuGENE6™ (Roche Molecular Biochemicals) according to the manufacturer's instructions. COS1 cells were seeded in 6-well plates at 1.5×10^5/well at 16 hrs before the transfection was performed. The COS1 cells were maintained in a HAM F-12 medium or DMEM containing 10% fetal bovine serum in a humidified incubator at 37° C. At 48 hrs after the transfection, the cells were collected for use in the experiments. The cells were incubated in the presence of purified proMMP-2 in a serum-free medium (0.25 μg/ml) at 37° C. for 18 hrs. Cell lysates were tested for the expression of the mutants, while culture supernatants were tested for the activation of proMMP-2.
(§3) To investigate roles of dimer formation upon the activation of proMMP-2, MT1-F was introduced into COS1 cells together with MT1PEX-F. The co-introduced cells were reacted with exogenously added proMMP-2. Thus, COS1 cells were co-transfected with the MT1-F and MT1PEX-F at indicated DNA amount ratios. Next, purified proMMP-2 (0.25 μg/ml) in a serum-free medium was reacted with the resulting cells at 37° C. for 18 hrs. MMP-2 in the culture supernatant was analyzed by gelatin zymography, and the cell lysates were subjected to Western blotting analysis using a monoclonal anti-FLAG M2 antibody.
(§4) Next, to determine if MT1PEX-F affects the catalytic activity of MT1-MMP on the cell surface or not, tests for gelatin degrading activity and binding capacity to TIMP-2 were conducted using cells transfected in the same incubator. As shown in FIGS. 12 through 14, CHO-K1 cells were transfected with an expression vector for MT1-F, MT1-F/MT1PEX-F or MT1Cat-F, or a vector alone (Mock). The cells were then treated with trypsin, and separately seeded to: DQ™ gelatin-coated cover slips for testing the proteolytic activity (FIG. 13); and 24-well plates for TIMP-2 binding assay (FIG. 12) and for the activation of proMMP-2 (FIG. 14). Transfected cells on the DQ™ gelatin-coated cover slip as shown in FIG. 13 were incubated in a medium at 37° C. for 18 hrs, and the generated fluorescence was analyzed using confocal microscopy. Transfected cells on the 24-well plate as shown in FIG. 12 were incubated with 25 nM ^125I-labeled TIMP-2 in the presence or absence of BB-94 (50 μM) at 0° C. for 1 hr. MT1-MMP specific binding was calculated by subtracting the datum obtained in the presence of BB-94 (50 μM) from each datum derived from the corresponding experiments. […] DQ™ gelatin is a fluorescence-quenched gelatin, which fluoresces upon proteolytic cleavage. […]

MT1-MMP [2] = assay: as above; format: cell-based, human; conditions: transfected COS1 cells, exogenous purified proMMP-2 (FIGS. 2, 20)
Description: as §1, §2, §3, §4

MT1PEX-F: Catalytic domain-deleted FLAG-tagged MT1-MMP (Δ Tyr112-Pro312), expressed by transfection
effect on proMMP-2 binding to the cell surface (proMMP-2): not affected | effect on the activation of proMMP-2 (MT1-MMP [1]; CHO-K1 cells co-transfected with MT1-F and MT1PEX-F (FIG. 14)): completely inhibited the activation of proMMP-2 | effect on the activation of proMMP-2 by MT1-F (MT1-MMP [1]; COS1 cells co-transfected at indicated DNA ratios, proMMP-2 0.25 μg/ml, 37° C., 18 hrs (FIGS. 11 and 28)): inhibited the activation of proMMP-2 by MT1-F, in dependence upon the expression level

MT1Cat-F: PEX-deleted FLAG-tagged MT1-MMP (Δ Ile318-Gly535)
activation of proMMP-2 by cells expressing the mutant (MT1-MMP [2]): did not activate at all

Source: patent US20040120954A1, “Regulation of mt1-mmp activity” (priority 2000, published 2004)
